± gives the standard error.
Assay: background-corrected fluorescence of 3'-dye-labeled ssDNA relative to brightest sequence (3'-GCGCG) (fraction); higher = brighter dye fluorescence (less quenching)
Outline: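 Arrays of single-stranded DNA, with a 3' Cy3 or Cy5 dye beside each of 1024 permuted pentamers, were built on glass slides through light-directed phosphoramidite synthesis. They were washed for 2 h at r.t. in acetonitrile and scanned at 532 or 635 nm, once before and once after overnight ethylenediamine/ethanol deprotection. Fluorescence is reported after subtracting unlabeled-oligo background and normalizing to the brightest sequence. Averages cover 10 features per array and at least 3 syntheses.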

| Sequence | background-corrected fluorescence (dye: Cy3 (3' terminal)) | background-corrected fluorescence (dye: Cy5 (3' terminal)) |
| --- | --- | --- |
| TTTTTTCAGCATCATCAGCATTTTTTTTTTTTTTTGTGGT [TGGTG] | 0.659 ± 0.02 | 0.544 ± 0.031 |
| TTTTTGCATCAGCATGCTGCTTTTTTTTTTTTTTTTGTAA [AATGT] | 0.596 ± 0.019 | 0.478 ± 0.03 |
| TTTTTTCATGCGCATGATGCTTTTTTTTTTTTTTTGATCA [ACTAG] | 0.535 ± 0.034 | 0.43 ± 0.022 |
| TTTTTTGAGCATGCTGCGCATTTTTTTTTTTTTTTCTAAT [TAATC] | 0.542 ± 0.015 | 0.394 ± 0.027 |
| TTTTTTCAGCATCATGCGCATTTTTTTTTTTTTTTGTGAT [TAGTG] | 0.548 ± 0.032 | 0.429 ± 0.021 |
| TTTTTGCATGATCAGCATCATTTTTTTTTTTTTTTTCGTG [GTGCT] | 0.525 ± 0.015 | 0.441 ± 0.029 |
| TTTTTTCATCATGATGAGCATTTTTTTTTTTTTTTGGCCT [TCCGG] | 0.4958 ± 0.0048 | 0.386 ± 0.035 |
| TTTTTTGCTCAGCATGAGCATTTTTTTTTTTTTTTAGTCT [TCTGA] | 0.472 ± 0.018 | 0.368 ± 0.029 |
| TTTTTTCAGCATGCTGATCATTTTTTTTTTTTTTTGTACG | 0.561 ± 0.02 | 0.475 ± 0.031 |
| TTTTTTCATCATGCGCAGCATTTTTTTTTTTTTTTGGATT [TTAGG] | 0.584 ± 0.031 | 0.41 ± 0.061 |
| TTTTTGCATGATGATGATCATTTTTTTTTTTTTTTTCCCG [GCCCT] | 0.509 ± 0.013 | 0.381 ± 0.04 |
| TTTTTGCATGCTGCTCATGCTTTTTTTTTTTTTTTTAAGA [AGAAT] | 0.649 ± 0.011 | 0.589 ± 0.024 |
| TTTTTTGATGATGCGCATCATTTTTTTTTTTTTTTCCATG [GTACC] | 0.542 ± 0.026 | 0.361 ± 0.035 |
| TTTTTGCATGATGCTGATCATTTTTTTTTTTTTTTTCACG [GCACT] | 0.491 ± 0.03 | 0.399 ± 0.022 |
| TTTTTTGAGCATGATGCTCATTTTTTTTTTTTTTTCTCAG [GACTC] | 0.517 ± 0.024 | 0.389 ± 0.03 |
| TTTTTTGCTGCTGCGCAGCATTTTTTTTTTTTTTTAAATT | 0.543 ± 0.048 | 0.401 ± 0.019 |
| TTTTTTGATCAGCATGCTGATTTTTTTTTTTTTTTCGTAC | 0.49 ± 0.01 | 0.376 ± 0.053 |
| TTTTTTGATGATGATGCTGCTTTTTTTTTTTTTTTCCCAA [AACCC] | 0.485 ± 0.031 | 0.386 ± 0.022 |
| TTTTTGCAGCATGCGCATCATTTTTTTTTTTTTTTTTATG [GTATT] | 0.467 ± 0.015 | 0.366 ± 0.024 |
| TTTTTTCATCATCATCATCATTTTTTTTTTTTTTTGGGGG | 0.709 ± 0.059 | 0.635 ± 0.03 |
| TTTTTGCATGCTGATGAGCATTTTTTTTTTTTTTTTACCT [TCCAT] | 0.461 ± 0.017 | 0.345 ± 0.023 |
| TTTTTTGCTGCTCATGATCATTTTTTTTTTTTTTTAAGCG [GCGAA] | 0.632 ± 0.033 | 0.513 ± 0.033 |
| TTTTTGCATGCTCATGATCATTTTTTTTTTTTTTTTAGCG [GCGAT] | 0.658 ± 0.008 | 0.494 ± 0.055 |
| TTTTTTCATGATGCTCATCATTTTTTTTTTTTTTTGCAGG [GGACG] | 0.642 ± 0.025 | 0.516 ± 0.039 |
| TTTTTTGCTGATCATGATCATTTTTTTTTTTTTTTACGCG [GCGCA] | 0.973 ± 0.017 | 0.876 ± 0.027 |
| TTTTTTGCTGAGCAGCATCATTTTTTTTTTTTTTTACTTG [GTTCA] | 0.503 ± 0.019 | 0.4 ± 0.024 |
| TTTTTTGATGCTGAGCATGCTTTTTTTTTTTTTTTCACTA [ATCAC] | 0.471 ± 0.014 | 0.352 ± 0.025 |
| TTTTTTCATCAGCAGCATGATTTTTTTTTTTTTTTGGTTC [CTTGG] | 0.414 ± 0.026 | 0.31 ± 0.025 |

— the supplement of paper PMC9428881
